Measured values: patent US20230167458A1, “FORSKOLIN-INDUCIBLE PROMOTERS AND HYPOXIA-INDUCIBLE PROMOTERS” (ASKLEPIOS BIOPHARMACEUTICAL, INC., priority 2020, published 2023)

Legend:
CHO-GS-KSV1 cell line = assay: SEAP expression in stably transfected CHO-GS-KSV1, forskolin or NKH477 induction; format: cell-based, chinese hamster; conditions: stable CHO-GS-KSV1, SEAP, forskolin or NKH477
Procedure: The forskolin-inducible promoters were then tested in a stably transfected CHO-GS-KSV1 cell line.
• CD-CHO media (Life technologies, CAT #10743029) • Corning 125 mL Polycarbonate Erlenmeyer Flask with Vent Cap (CAT #734-1885). • Gene Pulser® Electroporation Cuvettes, 0.4 cm gap (BioRad, CAT #165-2088) • Gene Pulser Xcell Total System (BioRad, CAT, #1652660) • GS-vector DNA ([…] in 100 μL TE buffer) linearised with Sca1 • Suspension cultures of CHOK1SV GS-KO host cells.
Cell suspensions of 6×10^5 cells per mL were incubated on an orbital shaker set at 8% CO2, 20% O2, 37° C., 85% relative humidity and 140 rpm overnight. 2.86×10^7 cells were centrifuged at 200 g for 3 minutes. Media was then aspirated and cell pellet resuspended in 2 mL fresh CD-CHO media to obtain a concentration of 1.43×10^7 cells per mL. 700 μL of cell suspension was added to each of two electroporation cuvettes each containing […] of linearised DNA in 100 μL of sterile TE buffer (Thermofisher, 12090015). Each cuvette was electroporated, delivering a single pulse of 300V, […] with resistance to infinity. Immediately after delivery of pulse electroplated cells were transferred to Erlenmeyer 125 mL flask containing 20 mL of CD-CHO media pre-warmed to 37° C. Electroporated cells from two cuvettes are combined into a single 125 mL flask to generate one pool of cells. Cells are cultured on an orbital shaker set at 8% CO2, 20% O2, 37° C., 85% relative humidity and 140 rpm. Cells are transferred to fresh CD-CHO media 24 hours after transfection and cell cultures monitored and given fresh CD-CHO media every 2-4 days. Usually after about 10-14 days cell numbers will be high enough to start passaging.
The transfected DNA was the pXC-17.4 expression vector (Lonza Biologics plc) where one of the promoter constructs (or a control promoter (CMV-IE) have been cloned upstream of the secreted alkaline phosphatase (SEAP) gene, which had been cloned into the multiple cloning site within the vector expression cassette. Promoters were closed into the pXC-17.4 vector using Gibson assembly. The pXC-17.4 expression vector is designed for making stable cell lines in the CHO-GSK1SV cell line as it contains the […] gene which has been knocked out of the cell line. Therefore, selection of cells in glutamine drop-out medium will select for cells that have stably integrated the plasmid.
The responsiveness of the RTV-019 promoter to different concentrations of forskolin and […] was tested in the stably transfected CHO-GS-KSV1 cell line. To this end, the stably transfected CHO-GS cells were seeded at 500,000 cells/ml and allowed to grow for 24 hrs. At this point the cells were induced by addition of the respective concentrations of forskolin and NKH477 and SEAP expression was measured as described below after 24 hours.
The promoter activity and inducibility of FMP-02, FORCYB-001, RTV-017, FORCSV-10, FOR-CMC-009, FLP-01 and RTV-019 were also tested in the stably transfected CHO-GS-KSV1 cell line. To this end, the stably transfected CHO-GS cells were seeded at 500,000 cells/ml and allowed to grow for 24 hrs. At this point the cells were exposed to […] forskolin or […] NKH477 for 24 hours. After this point, the SEAP activity in the medium was assessed as described below.
SEAP Reporter Gene Assay, chemiluminescent (Roche, CAT #11 779 842 001) was used to measure SEAP activity as per the manufacturer's protocol. All reagents and samples were fully pre-equilibrated at room temperature. Culture supernatant was collected from the stably transfected CHO-GS at the specific time points (0 h and 24 h). The supernatant was diluted 1:4 in dilution buffer and heat treated at 65° C. for 30 minutes. The heat-treated sample was then centrifuged for 30 s at maximum speed. 50 μl of the heat-treated sample was then added to 5 μl of inactivation buffer and incubated for 5 min at room temperature. 50 μl of substrate reagent was then added and incubated for 10 min at room temperature. […]

HEK293-F = assay: Luciferase time course after forskolin induction, transient transfection of suspension HEK293-F; format: cell-based, human; conditions: 20 µM forskolin
Procedure: The tested promoters were synthesised directly upstream of the ATG of PM-RQ plasmid and the suspension cell lines were transiently transfected with the PM-RQ plasmid.
40 ml of cells were grown in a 250 ml vented Erlenmeyer flask (Sigma-Aldrich CLS431144) at 37° C., 20% O2, 8% CO2 with agitation at 100 rpm. Cells were seeded as described in the manufacturer's instructions (300,000 cells/ml). HEK293-F were obtained from Thermofisher, R79007.
One day before transfection, the cells were counted using a haemocytometer and split to 500,000 cells/ml.
On the day of transfection, the cells are seeded to 1,000,000 cells/ml in 500 μl of appropriate medium (Freestyle 293 expression medium, 12338002) in a 24 well plate. […] of DNA per well was then added to 10 μl of OptiMem medium (Thermofisher; 11058021) and incubated for 5 minutes at room temperature.
Concurrently, 0.625 μl of Max reagent (Thermofisher, 16447100) was made up to 10 μl by addition of OptiMem and incubated for 5 minutes at room temperature. After this incubation, both mixes were added to the same tube and incubated at room temperature for 25-30 minutes. […]
24 hours after transfection, the promoters were induced by addition of […] forskolin and luciferase activity was measured 0, 3, 5 and 24 hours after induction. Luciferase activity was measured as previously described.

B1: FMP-02: synthetic forskolin-inducible promoter, SEQ ID NO: 41; 8× AP1(1) TFBS and MinTK minimal promoter (nucleic acid)
DNA: TGAGTCAGATGATGCGTAGCTAGTAGTTGAGTCAGATGATGCGTAGCTAGTAGTTGAGTCAGATGATGCGTAGCTAGTAGTTGAGTCAGATGATGCGTAGCTAGTAGTTGAGTCAGATGATGCGTAGCTAGTAGTTGAGTCAGATGATGCGTAGCTAGTAGTTGAGTCAGATGATGCGTAGCTAGTAGTTGAGTCAGTAGTCGTATGCTGATGCGCAGTTAGCGTAGCTGAGGTACCGTCGACGATATCGGATCCTTCGCATATTAAGGTGACGCGTGTGGCCTCGAACACCGAGCGACCCTGCAGCGACCCGCTTAA
modifications: Synp-FMP-02
notes: 8× AP1(1) TFBS and MinTK minimal promoter
CHO-GS-KSV1 cell line
  relative rank of promoter strength: weakest
HEK293-F
  relative rank of promoter (fold induction/strength): weakest
